Assay results from PMC5262459.

Target: nucleosome with full-length recombinant Xenopus laevis histones acetylated by the lysine acetyltrans (X. laevis) (UniProt P62799)
Test: single-particle negative-staining TEM in a DNA origami force spectrometer

depth of the minimum of the nucleosome pair potential: -0.6 kcal/mol
Substance: nucleosome with full-length recombinant Xenopus laevis histones acetylated by the lysine acetyltrans (from UniProt P62799 1-103) (complex)
